Assay results as given in patent US20190300610A1 (published 2019).

Assays:
[1] = target: T1, cynomolgus macaque VISTA polypeptide (ELISA coat) (cynomolgus macaque, UniProt A0A7N9IB00 33-194); test: ELISA
T1 chain: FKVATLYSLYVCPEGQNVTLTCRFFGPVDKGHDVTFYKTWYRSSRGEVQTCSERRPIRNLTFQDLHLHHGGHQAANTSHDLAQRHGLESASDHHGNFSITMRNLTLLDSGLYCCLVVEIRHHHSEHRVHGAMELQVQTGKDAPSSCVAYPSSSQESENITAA

[2] = target: -; test: BLI; Figure 25B
[3] = target: human VISTA polypeptide (ELISA coat) (UniProt Q9H7M9 33-194); test: ELISA

B1: VSTB112 IgG1 (antibody, V domains shown)
VH: QVQLVQSGAEVKKPGSSVKVSCKASGGTFSSYAISWVRQAPGQGLEWMGGIIPIFGTANYAQKFQGRVTITADESTSTAYMELSSLRSEDTAVYYCARSSYGWSYEFDYWGQGTLVTVSS
VL: DIQMTQSPSSLSASVGDRVTITCRASQSIDTRLNWYQQKPGKAPKLLIYSASSLQSGVPSRFSGSGSGTDFTLTISSLQPEDFATYYCQQSAYNPITFGQGTKVEIKR
EC50 [1]: 0.0052 nM

B2: mFcγRIII (receptor)
chain: ALPKAVVKLDPPWIQVLKEDMVTLMCEGTHNPGNSSTQWFHNGRSIRSQVQASYTFKATVNDSGEYRCQMEQTRLSDPVDLGVISDWLLLQTPQRVFLEGETITLRCHSWRNKLLNRISFFHNEKSVRYHHYKSNFSIPKANHSHSGDYYCKGSLGSTQHQSKPVTITVQDPATTSSISLVWYHT
Kd [2]: 455 nM

B3: anti-VISTA clone 4M2-C12 IgG1 (antibody)
heavy: not shown
light: DIVITQTPAILSTSPGEKVTMTCRASSSVGYIHWYQQKPGSSPKPWIYATSNLASGVPARFSGSGSGTSNSLTITRVEAEDAATYYCQQWSSYPPITFGGGTKLEVKRTVAAPSVFIFPPSDEQLKSGTASVVCLLNNFYPREAKVQWKVDNALQSGNSQESVTEQDSKDSTYSLSSTLTLSKADYEKHKVYACEVTHQGLSSPVTKSFNRGEC
EC50 [3]: 0.246 nM
